Assay results as given in patent US11167035B2, “Insulin compositions and method of making a composition” (Novo Nordisk A/S, priority 2005, dated 2021).

Assay: SEC on Superose 6 PC, insulin self association
Format: physicochemical
Conditions: 600 μM insulin
Procedure: Analysis by size exclusion chromatography (SEC) on a Superose 6 PC column (0.32*30 cm) using isotonic 10 mM tris-buffered saline optionally added 2 mM phenol at 37° C. and pH 7.3, injection volume of 20 μL, flow of 0.05 mL/min and run time 130 min. First reference of Blue dextran (>>5 MDa, KAV 0.0), Thyroglobulin (669 kDa, KAV 0.28), Ferritin (440 kDa, KAV 0.39), Ovalbumin (44.5 kDa, KAV 0.56), Ribonuclease (13.7 kDa, KAV 0.69) and a second reference of Albumin (66 kDa, KAV 0.53), Co(III)insulin-hexamer (35 kDa, KAV 0.61), and monomeric insulin X2 (6 kDa, KAV 0.73). Retention time of blue dextran was 17.9 min (to) and 0.74 min without column (td), and retention time of albumin (HSA) was about 34.1 min, KAV=(t−t0)/(V/f+td−t0) with
KAV area peak1 is measured from KAV=0 to KAV=0.46 (32 min) as relative area % of total area for KAV<0.46 corresponding to self association larger than albumin. For KAV peak 1 about 0.56 (albumin size) integration cut is between albumin size and insulin hexamer size.
For SEC method without phenol in eluent peak1 contain associated forms larger than albumin and peak2 contain dihexameric, hexameric, dimeric and monomeric forms of insulin.
For SEC method including 2 mM phenol in the eluent peak1 contain dihexameric and other larger forms of insulin and peak2 contain hexameric, dimeric and monomeric forms of insulin.
The formulations were studied after storage 2 week at 37C compared to storage at 5C by the SEC method described in example 4 using an eluent with 2 mM phenol. Reference formulations without citrate at 3, 5 and 6 Zn/6ins.deriv. were included.

For “B29Nε-(4-{[(2-Carboxy-ethyl)-(15-carboxy-pentadecanoyl)-amino]-methyl}-benzoyl) desB30 human insulin”, the “Kav 2 Zn peak 1” value (2 zinc/hexamer) was 0.01, the “Relative area % peak 1” value (2 zinc/hexamer) was 84% and the “Kav 6 Zn peak 1” value (6 zinc/hexamer) was 0.00. For the same substance, the “Relative area % peak 1” value (6 zinc/hexamer) was 98%.

For “B29Nε-hexadecandioyl-gamma-Glu-(3-(2-{2-[2-(2-amino-ethoxy)-ethoxy]-ethoxy}-ethoxy)-propionyl desB30 human insulin”, the “Kav 2 Zn peak 1” value (2 zinc/hexamer) was 0.09, the “Relative area % peak 1” value (2 zinc/hexamer) was 79% and the “Kav 6 Zn peak 1” value (6 zinc/hexamer) was 0.06. The “Relative area % peak 1” value (6 zinc/hexamer) was 89%.

For “B29Nε-(2-{[(2-Carboxy-ethyl)-(15-carboxy-pentadecanoyl)-amino]-methyl}-benzoyl) desB30 human insulin”, the “Kav 2 Zn peak 1” value (2 zinc/hexamer) was 0.16, the “Relative area % peak 1” value (2 zinc/hexamer) was 54% and the “Kav 6 Zn peak 1” value (6 zinc/hexamer) was 0.03. For the same substance, the “Relative area % peak 1” value (6 zinc/hexamer) was 93%.

With “B29Nε-(4-{[(2-Carboxy-ethyl)-(14-carboxy-tetradecanoyl)-amino]-methyl}-benzoyl) desB30 human insulin” the “Kav 2 Zn peak 1” value (2 zinc/hexamer) was 0.09, the “Relative area % peak 1” value (2 zinc/hexamer) was 55% and the “Kav 6 Zn peak 1” value (6 zinc/hexamer) was 0.00. The “Relative area % peak 1” value (6 zinc/hexamer) was 96%.

In the case of “B29Nε-[(5-{[(2-Carboxy-ethyl)-(15-carboxy-pentadecanoyl)-amino]-methyl}-furan-2-carbonyl) desB30 human insulin”, the “Kav 2 Zn peak 1” value (2 zinc/hexamer) is reported as 0.02, the “Relative area % peak 1” value (2 zinc/hexamer) is reported as 81% and the “Kav 6 Zn peak 1” value (6 zinc/hexamer) is reported as 0.03. The “Relative area % peak 1” value (6 zinc/hexamer) was 96%.
